Here are results for 1 molecule from publication PMC8602281 (Nature Communications, 2021).

This assay concerns the target receptor-binding domain (RBD) of SARS-CoV-2 (SARS-CoV-2, UniProt P0DTC2). In words: SPR. As to conditions: both partners purified.

B1: trastuzumab Fab with LCB1 insertion (Fab)
VH: EVQLVESGGGLVQPGGSLRLSCAASGFNIKDTYIHWVRQAPGKGLEWVARIYPTNGYTRYADSVKGRFTISADTSKNTAYLQMNSLRAEDTAVYYCSRWGGDGGSDKEWILQKIYEIMRLLDELGHAEASMRVSDLIYEFMKKGGSGFYAMDYWGQGTLVTVSS
VL: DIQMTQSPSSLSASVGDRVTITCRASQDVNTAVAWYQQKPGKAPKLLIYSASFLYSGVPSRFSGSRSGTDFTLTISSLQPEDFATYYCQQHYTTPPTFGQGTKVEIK
notes: also called trast-LCB1; trastuzumab +LCB1
Consider B1, for which the Kd (usually the constant that tells how readily two partners part at equilibrium) came out at 0.9 nM.
